Test results reported in FireProtDB (doi:10.1016/s0022-2836(02)00737-4).

Conditions: Escherichia coli (strain K12); pH 7.8; 25 °C; Urea; CD; potassium phosphate 10 mM; transition: 3; whole UniProt chain shown

B1: Tryptophan synthase alpha chain wild type, P0A877 (protein)
chain: MERYESLFAQLKERKEGAFVPFVTLGDPGIEQSLKIIDTLIEAGADALELGIPFSDPLADGPTIQNATLRAFAAGVTPAQCFEMLALIRQKHPTIPIGLLMYANLVFNKGIDEFYAQCEKVGVDSVLVADVPVEESAPFRQAALRHNVAPIFICPPNADDDLLRQIASYGRGYTYLLSRAGVTGAENRAALPLNHLVAKLKEYNAAPPLQGFGISAPDQVKAAIDAGAAGAISGSAIVKIIEQHINEPEKMLAALKVFVQPMKAATRS
In the case of B1, the denaturant m value is reported as 2.29 kcal/mol/M, the “denaturant midpoint (higher = more stable)” value is reported as 2.68 M and the unfolding free energy is reported as 6.13 kcal/mol.
